Source: the supplement of paper PMC10567573

B1: WEE1 (parent)
chain: FLGSSFSPVRCGGPGDASPRGCGA
B2: ZC3H15 (parent)
chain: ENLFTGEDLDELEEELNTLDLEE

Variants of: B1
Assay: protein stability index of a GFP-peptide fusion (GPS, HEK-293T) (PSI 1-6); higher = more stable
Conditions: c terminus: a fixed tail appended
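Further: lentivirally expressed fusions sorted by FACS into six bins by GFP to DsRed ratio, PSI derived from sequencing read proportions per bin multiplied by bin number.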

For FLGSSFSPVRCGGPGDASPRGCNA [G23N], which protein stability index is on record?
Its protein stability index is 1.66.

Which protein stability index does the source give for FLGSSFSPVRCGGPGDASPRGCTA [G23T] here?
Its protein stability index is 1.7.

With FLGSSFSPVRCGGPGDASPRGCIA [G23I] as the variant, how does the protein stability index read?
Its protein stability index is 2.35.

With FLGSSFSPVRCGGPGDASPRGCYA [G23Y] as the variant, how does the protein stability index read?
Its protein stability index is 1.4.

Which protein stability index does the source give for FLGSSFSPVRCGGPGDASPRGCMA [G23M] here?
The protein stability index was 1.63.

With FLGSSFSPVRCGGPGDASPRGCPA [G23P] as the variant, how does the protein stability index read?
The protein stability index was 2.06.

For FLGSSFSPVRCGGPGDASPRGCVA [G23V], which protein stability index is on record?
Its protein stability index is 1.73.

Which protein stability index does the source give for FLGSSFSPVRCGGPGDASPRGCRA [G23R] here?
Its protein stability index is 1.79.

With FLGSSFSPVRCGGPGDASPRGCSA [G23S] as the variant, how does the protein stability index read?
Its protein stability index is 1.82.

Which protein stability index does the source give for FLGSSFSPVRCGGPGDASPRGCLA [G23L] here?
The protein stability index was 1.09.

Which protein stability index does the source give for FLGSSFSPVRCGGPGDASPRGCQA [G23Q] here?
The protein stability index was 1.73.

Which protein stability index does the source give for FLGSSFSPVRCGGPGDASPRGCHA [G23H] here?
The protein stability index was 3.02.

For FLGSSFSPVRCGGPGDASPRGCKA [G23K], which protein stability index is on record?
The protein stability index was 1.71.

Which protein stability index does the source give for FLGSSFSPVRCGGPGDASPRGCGH [A24H] here?
The protein stability index was 1.52.

Which protein stability index does the source give for FLGSSFSPVRCGGPGDASPRGCGP [A24P] here?
The protein stability index was 1.58.

With FLGSSFSPVRCGGPGDASPRGCGN [A24N] as the variant, how does the protein stability index read?
The protein stability index was 2.28.

With FLGSSFSPVRCGGPGDASPRGCGV [A24V] as the variant, how does the protein stability index read?
Its protein stability index is 1.6.

For FLGSSFSPVRCGGPGDASPRGCGC [A24C], which protein stability index is on record?
Its protein stability index is 2.6.

For FLGSSFSPVRCGGPGDASPRGCGE [A24E], which protein stability index is on record?
Its protein stability index is 1.88.

For FLGSSFSPVRCGGPGDASPRGCGT [A24T], which protein stability index is on record?
Its protein stability index is 2.01.

Which protein stability index does the source give for FLGSSFSPVRCGGPGDASPRGCGQ [A24Q] here?
The protein stability index was 1.52.

For FLGSSFSPVRCGGPGDASPRGCGM [A24M], which protein stability index is on record?
Its protein stability index is 1.02.

With FLGSSFSPVRCGGPGDASPRGCGF [A24F] as the variant, how does the protein stability index read?
Its protein stability index is 2.42.

For FLGSSFSPVRCGGPGDASPRGCGD [A24D], which protein stability index is on record?
Its protein stability index is 2.27.

With FLGSSFSPVRCGGPGDASPRGCGS [A24S] as the variant, how does the protein stability index read?
Its protein stability index is 1.58.

With FLGSSFSPVRCGGPGDASPRGCGG [A24G] as the variant, how does the protein stability index read?
The protein stability index was 1.75.

Which protein stability index does the source give for FLGSSFSPVRCGGPGDASPRGCGI [A24I] here?
The protein stability index was 1.42.

Which protein stability index does the source give for FLGSSFSPVRCGGPGDASPRGCGL [A24L] here?
The protein stability index was 1.82.

With FLGSSFSPVRCGGPGDASPRGCGR [A24R] as the variant, how does the protein stability index read?
The protein stability index was 1.98.

Which protein stability index does the source give for FLGSSFSPVRCGGPGDASPRGCGY [A24Y] here?
The protein stability index was 1.75.

With FLGSSFSPVRCGGPGDASPRGCGK [A24K] as the variant, how does the protein stability index read?
The protein stability index was 2.17.

Which protein stability index does the source give for FLGSSFSPVRCGGPGDASPRGCGW [A24W] here?
Its protein stability index is 1.37.

Variants of: B2
Assay: as above
Conditions: c terminus: native

Which protein stability index does the source give for EWLFTGEDLDELEEELNTLDLEE [N2W] here?
The protein stability index was 3.12.

Which protein stability index does the source give for EQLFTGEDLDELEEELNTLDLEE [N2Q] here?
The protein stability index was 4.71.

With EHLFTGEDLDELEEELNTLDLEE [N2H] as the variant, how does the protein stability index read?
The protein stability index was 4.

Which protein stability index does the source give for ECLFTGEDLDELEEELNTLDLEE [N2C] here?
Its protein stability index is 4.28.

Which protein stability index does the source give for ESLFTGEDLDELEEELNTLDLEE [N2S] here?
The protein stability index was 4.6.

For EVLFTGEDLDELEEELNTLDLEE [N2V], which protein stability index is on record?
Its protein stability index is 4.17.

For EYLFTGEDLDELEEELNTLDLEE [N2Y], which protein stability index is on record?
The protein stability index was 4.78.

Which protein stability index does the source give for EMLFTGEDLDELEEELNTLDLEE [N2M] here?
The protein stability index was 4.08.

Which protein stability index does the source give for ERLFTGEDLDELEEELNTLDLEE [N2R] here?
The protein stability index was 4.94.

With EELFTGEDLDELEEELNTLDLEE [N2E] as the variant, how does the protein stability index read?
Its protein stability index is 4.39.

With EKLFTGEDLDELEEELNTLDLEE [N2K] as the variant, how does the protein stability index read?
Its protein stability index is 3.49.

With ETLFTGEDLDELEEELNTLDLEE [N2T] as the variant, how does the protein stability index read?
The protein stability index was 4.23.

For EILFTGEDLDELEEELNTLDLEE [N2I], which protein stability index is on record?
The protein stability index was 3.61.

Which protein stability index does the source give for EPLFTGEDLDELEEELNTLDLEE [N2P] here?
Its protein stability index is 4.24.

For TNLFTGEDLDELEEELNTLDLEE [E1T], which protein stability index is on record?
The protein stability index was 4.11.

For MNLFTGEDLDELEEELNTLDLEE [E1M], which protein stability index is on record?
The protein stability index was 3.76.

With INLFTGEDLDELEEELNTLDLEE [E1I] as the variant, how does the protein stability index read?
The protein stability index was 3.24.

Which protein stability index does the source give for LNLFTGEDLDELEEELNTLDLEE [E1L] here?
The protein stability index was 4.16.

With CNLFTGEDLDELEEELNTLDLEE [E1C] as the variant, how does the protein stability index read?
Its protein stability index is 3.8.

With PNLFTGEDLDELEEELNTLDLEE [E1P] as the variant, how does the protein stability index read?
The protein stability index was 4.12.

Which protein stability index does the source give for SNLFTGEDLDELEEELNTLDLEE [E1S] here?
Its protein stability index is 4.42.

Which protein stability index does the source give for HNLFTGEDLDELEEELNTLDLEE [E1H] here?
The protein stability index was 3.66.

Which protein stability index does the source give for KNLFTGEDLDELEEELNTLDLEE [E1K] here?
Its protein stability index is 3.59.

Which protein stability index does the source give for FNLFTGEDLDELEEELNTLDLEE [E1F] here?
Its protein stability index is 3.23.

With DNLFTGEDLDELEEELNTLDLEE [E1D] as the variant, how does the protein stability index read?
The protein stability index was 4.19.

For YNLFTGEDLDELEEELNTLDLEE [E1Y], which protein stability index is on record?
The protein stability index was 3.58.

Which protein stability index does the source give for WNLFTGEDLDELEEELNTLDLEE [E1W] here?
The protein stability index was 2.89.

Which protein stability index does the source give for NNLFTGEDLDELEEELNTLDLEE [E1N] here?
The protein stability index was 4.12.

For QNLFTGEDLDELEEELNTLDLEE [E1Q], which protein stability index is on record?
Its protein stability index is 4.14.

With VNLFTGEDLDELEEELNTLDLEE [E1V] as the variant, how does the protein stability index read?
The protein stability index was 4.25.

With ANLFTGEDLDELEEELNTLDLEE [E1A] as the variant, how does the protein stability index read?
Its protein stability index is 4.26.

Which protein stability index does the source give for ENMFTGEDLDELEEELNTLDLEE [L3M] here?
The protein stability index was 5.09.

Which protein stability index does the source give for ENQFTGEDLDELEEELNTLDLEE [L3Q] here?
The protein stability index was 4.62.

For ENRFTGEDLDELEEELNTLDLEE [L3R], which protein stability index is on record?
The protein stability index was 4.71.

With ENIFTGEDLDELEEELNTLDLEE [L3I] as the variant, how does the protein stability index read?
The protein stability index was 4.57.

With ENKFTGEDLDELEEELNTLDLEE [L3K] as the variant, how does the protein stability index read?
The protein stability index was 4.06.

With ENNFTGEDLDELEEELNTLDLEE [L3N] as the variant, how does the protein stability index read?
Its protein stability index is 4.8.

For ENYFTGEDLDELEEELNTLDLEE [L3Y], which protein stability index is on record?
Its protein stability index is 3.6.

With ENVFTGEDLDELEEELNTLDLEE [L3V] as the variant, how does the protein stability index read?
Its protein stability index is 4.6.

Which protein stability index does the source give for ENGFTGEDLDELEEELNTLDLEE [L3G] here?
Its protein stability index is 4.81.

With ENCFTGEDLDELEEELNTLDLEE [L3C] as the variant, how does the protein stability index read?
Its protein stability index is 3.83.

For ENEFTGEDLDELEEELNTLDLEE [L3E], which protein stability index is on record?
The protein stability index was 4.08.

For ENWFTGEDLDELEEELNTLDLEE [L3W], which protein stability index is on record?
Its protein stability index is 3.55.

With ENDFTGEDLDELEEELNTLDLEE [L3D] as the variant, how does the protein stability index read?
Its protein stability index is 5.09.

Which protein stability index does the source give for ENHFTGEDLDELEEELNTLDLEE [L3H] here?
Its protein stability index is 4.39.

With ENSFTGEDLDELEEELNTLDLEE [L3S] as the variant, how does the protein stability index read?
The protein stability index was 5.2.

With ENAFTGEDLDELEEELNTLDLEE [L3A] as the variant, how does the protein stability index read?
The protein stability index was 4.1.

Which protein stability index does the source give for ENPFTGEDLDELEEELNTLDLEE [L3P] here?
The protein stability index was 4.65.

With ENTFTGEDLDELEEELNTLDLEE [L3T] as the variant, how does the protein stability index read?
Its protein stability index is 4.71.

Which protein stability index does the source give for ENLRTGEDLDELEEELNTLDLEE [F4R] here?
The protein stability index was 4.67.

For ENLCTGEDLDELEEELNTLDLEE [F4C], which protein stability index is on record?
Its protein stability index is 5.49.

For ENLGTGEDLDELEEELNTLDLEE [F4G], which protein stability index is on record?
The protein stability index was 4.83.

For ENLMTGEDLDELEEELNTLDLEE [F4M], which protein stability index is on record?
The protein stability index was 4.5.

For ENLITGEDLDELEEELNTLDLEE [F4I], which protein stability index is on record?
The protein stability index was 5.19.

For ENLATGEDLDELEEELNTLDLEE [F4A], which protein stability index is on record?
The protein stability index was 4.68.

With ENLDTGEDLDELEEELNTLDLEE [F4D] as the variant, how does the protein stability index read?
The protein stability index was 5.08.

Which protein stability index does the source give for ENLHTGEDLDELEEELNTLDLEE [F4H] here?
The protein stability index was 4.55.

Which protein stability index does the source give for ENLSTGEDLDELEEELNTLDLEE [F4S] here?
The protein stability index was 5.13.

Which protein stability index does the source give for ENLETGEDLDELEEELNTLDLEE [F4E] here?
Its protein stability index is 4.31.

For ENLQTGEDLDELEEELNTLDLEE [F4Q], which protein stability index is on record?
The protein stability index was 4.69.

Which protein stability index does the source give for ENLNTGEDLDELEEELNTLDLEE [F4N] here?
Its protein stability index is 4.74.

Which protein stability index does the source give for ENLLTGEDLDELEEELNTLDLEE [F4L] here?
Its protein stability index is 4.58.

Which protein stability index does the source give for ENLKTGEDLDELEEELNTLDLEE [F4K] here?
The protein stability index was 3.66.

With ENLPTGEDLDELEEELNTLDLEE [F4P] as the variant, how does the protein stability index read?
The protein stability index was 5.03.
